The source of these data is article PMC6527350 (Journal of molecular biology, 2019).

The data set deals with the molecule itself. In words: FRET or BRET. Background: Bioluminescence resonance energy transfer reports proximity on the nanometre scale.

B1: PCNA-WC2-AEDANS (human PCNA N107W-T185C-C27M-W28F-C62M-C81S-C148S-C135S-C162S, labelled with AEDANS at C185) (natural protein)
chain: MFEARLVQGSILKKVLEALKDLINEAMFDISSSGVNLQSMDSSHVSLVQLTLRSEGFDTYRMDRNLAMGVNLTSMSKILKSAGNEDIITLRAEDNADTLALVFEAPWQEKVSDYEMKLMDLDVEQLGIPEQEYSSVVKMPSGEFARISRDLSHIGDAVVISSAKDGVKFSASGELGNGNIKLSQCSNVDKEEEAVTIEMNEPVQLTFALRYLNFFTKATPLSSTVTLSMSADVPLVVEYKIADMGHLKYYLAPKIEDEEGS
modifications: AEDANS on the cysteine at 185 (T185C), labelled with IAEDANS
As for B1, the binding result is given as “binds”.
